{"source": "patent US20220380473A1", "about": "“ANTI-GAL3 ANTIBODIES AND USES THEREOF” (TrueBinding, Inc., priority 2019, published 2022)", "molecules": {"B1": {"name": "IMT001: anti-Gal3 monoclonal antibody (Immutics); printed as mIMT001 (IMT001), murine (antibody, V domains shown)", "VH": "QIQLVQSGPELKKPGETVKISCKASGYTFTNYGMNWVKQAPGKGLKWMGWINTNTGEPTYVEEFKGRFAFSLETSASTAYLQINNLKNEDTATYFCAPYDNFFAYWGQGTLVTVSA", "VL": "DIVITQDELSNPVTSGESVSISCRSSKSLLYKDGKTYLNWFLQRPGQSPQLLIYLMSTHASGVSDRFSGSGSGTDFTLEISRVKAEDVGVYYCQQLVDYPLTFGAGTKLELK"}}, "key": {"[1]": {"system": "human dendritic cells (DC), M1 and M2 macrophage cells", "assay": "Flow cytometry staining of human DC, M1 and M2 macrophages", "type": "cell-based", "conditions": "10 μg/ml", "description": "First Human CD14 monocytes were isolated from peripheral blood mononuclear cells (PBMC) with a CD14 cell positive selection kit (Miltenyi, Auburn, Calif.) and differentiated into dendritic cells (DC), or into M1 macrophages, or into M2 macrophages in the presence of GM-CSF plus IL-4, or GM-CSF, or M-CSF (Rocky Hill, N.J.), respectively. Then flow cytometry analysis was performed to detect Gal3 expression on human dendritic cells (DC), M1 and M2 macrophage cells. In details, 100,000 DC, M1 or M2 cells were incubated with 100 μl 10% FBS HBSS solution that contains with control mIgG-biotin (BioLegend) or IMT001-biotin at 10 μg/ml on ice for 20 minutes. Then cells were washed and incubated with PE-streptavidin (BioLegend) at 1:1000 on ice for 20 min. After spinning, live/dead cells were stained with Violet dead cell stain kit (Life Technologies). Stained cells were subjected to flow analysis."}, "[2]": {"biological_target": "T1, interaction of Gal3 and TIM-3 (Homo sapiens, UniProt P17931)", "T1 construct": "full-length human Galectin-3 protein (Acro Biosystems, GA3-H5129); linker-spaced 6-histidine tag; purchased Acro Biosystems GA3-H5129 (Gal3); TM3-H5229 (TIM-3)", "T1 sequence (P17931 2-250 limits assumed)": "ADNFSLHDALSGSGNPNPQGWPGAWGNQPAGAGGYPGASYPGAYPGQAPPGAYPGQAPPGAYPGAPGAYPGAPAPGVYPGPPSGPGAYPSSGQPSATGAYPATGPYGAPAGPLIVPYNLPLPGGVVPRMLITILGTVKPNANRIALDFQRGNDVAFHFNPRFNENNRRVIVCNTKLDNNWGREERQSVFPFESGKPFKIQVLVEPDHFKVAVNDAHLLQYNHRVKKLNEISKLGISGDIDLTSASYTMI", "assay": "Gal3-TIM-3 interaction blockade ELISA (Example 13)", "type": "binding", "conditions": "antibody at 20 ug/ml", "description": "To identify Gal3-targeted antibodies with the ability to block the interaction of Gal3 and TIM-3, purified Gal3 and TIM-3 proteins were incubated in the presence (or absence) of various Gal3-targeted or control antibodies, or without antibody, and protein interaction was evaluated by ELISA.\nHuman Gal3 protein (Acro Biosystems, GA3-H5129) was diluted in phosphate buffered saline (PBS) (Corning) to a concentration of 0.5 μg/ml and 100 ul of the diluted hGal3 was added to each well of a 96-well ELISA plate (Thermo Fisher, 44-2404-21). After incubating the plate at 4° C. overnight, the plate was washed three times with 300 μl of PBS with 0.05% TWEEN (VWR) (PBST) per well. The plate was then blocked for an hour with 200 μl of 2% bovine serum albumin (BSA) (Sigma) in PBST per well at room temperature with gentle rocking. […]\nAfterwards, 50 ul of 1 ug/ml of human TIM-3 extracellular domain protein (Acro Biosystems, TM3-H5229) in 2% BSA in PBST was added to the wells. […] The plate was read using a plate reader (Molecular Devices) at absorbance of 450 nm. Percent blockade of Gal3-TIM-3 interaction was calculated as the fraction of signal obtained in the absence of antibody with the background signal subtracted."}, "[3]": {"system": "mouse bleomycin-induced lung fibrosis model", "assay": "Mouse bleomycin-induced lung fibrosis model", "type": "in vivo", "description": "Fibrosis of the lung represents an additional significant form of fibrotic disease with significant health impacts in humans. To evaluate if the anti-fibrotic effects of GAL3-TIM3 blockade extend into the setting of lung fibrosis, a mouse bleomycin-induced lung fibrosis model was evaluated for sensitivity to mIMT001. Briefly, C57Blck/6 male mice were injected intra-tracheally with 30 ug of Bleomycin Sulfate (MP biomedicals, cat #190306) reconstituted in 50 ul of PBS. Mice were treated on day 18, 20, 22, and 24 with mIgG2b isotype control, anti-GAL3 antibody (mIMT001) (10 mg/kg) by tail vein injection, or small molecule TD139 (Med Chem Express, cat #HY-19940) at 10 uM in 50 ul of Captisol (Med Chem Express, cat #HY-17031) injected intra-tracheally. Mice were sacrificed on day 27 and lungs were surgically dissected and fixed in 4% paraformaldehyde for 24 hours, exchanged into 70% ethanol, and embedded in paraffin. Lung fibrosis in fixed specimens was evaluated by Masson's trichrome staining kit (26367) from Electron Microscopy Sciences (Hatfield, Pa.). […] lung sections were affixed to glass slides, After deparaffinization, rehydration in serial ethanol baths. Staining was performed by incubating in Bouin's fixative for 1 h at 56 degree, staining with Briebrich Scarlet/acid fuchsin, Phosphomolybdic Acid-Phosphotungstic Acid and Aniline Blue, then differentiated in acetic acid, prior to their dehydration, clearing and mounting."}}, "data": [{"molecule": "B1", "values": [{"measurement": "staining of dendritic cells and M1 macrophages", "setting": "[1]", "result": "could not be stained"}, {"measurement": "mean fluorescence intensity (MFI) of stained M2 cells vs isotype control", "setting": "[1]; human M2 macrophages", "result": "much higher"}, {"measurement": "Gal3-TIM-3 binding, % of unblocked control (no antibody)", "setting": "[2]", "result": 7, "unit": "%"}, {"measurement": "Ashcroft score", "setting": "[3]; 10 mg/kg tail vein day 18, 20, 22, 24, isotype 5.74", "result": 4.09}, {"measurement": "decrement in fibrotic injury", "setting": "[3]; vs isotype control", "result": 29, "unit": "%"}, {"measurement": "lung fibrosis, Masson's trichrome", "setting": "[3]; vs isotype control", "result": "substantially reduced"}]}]}
